From the supplement of paper PMC5998384

Tests used:
HeLa Kyoto [1] = assay: solubility in G1/S (NP-40 vs SDS abundance) (log2 ratio); higher = more soluble; settings: cell cycle stage: G1/S
HeLa Kyoto [2] = assay: melting temperature (median over replicates), in situ; higher = more thermally stable
HeLa Kyoto [3] = assay: solubility change mitosis vs G1/S (difference of NP-40 vs SDS log2 ratios) (log2 ratio difference); higher = more soluble in mitosis
HeLa Kyoto [4] = assay: thermal stability score vs G1/S (z-score of summed log2 fold changes over temperatures); higher = more thermally stable than in G1/S
[5] = cell cycle stage: early G1 (4.5 h after nocodazole release)
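For melting temperature (median over replicates), in situ in this document: HeLa Kyoto cells synchronized by double thymidine or nocodazole block, proteins quantified by TMT10plex mass spectrometry, three independent biological replicates.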
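For solubility change mitosis vs G1/S (difference of NP-40 vs SDS log2 ratios) in this document: synchronized HeLa Kyoto cells (double thymidine block for G1/S, nocodazole release for mitosis), protein amounts in NP-40 versus SDS lysates quantified by mass spectrometry, three biological replicates.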
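For solubility in G1/S (NP-40 vs SDS abundance) in this document: HeLa Kyoto cells arrested at G1/S by double thymidine block, proteins quantified by TMT10plex mass spectrometry in mild NP-40 versus SDS extracts, three biological replicates.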
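For thermal stability score vs G1/S (z-score of summed log2 fold changes over temperatures) in this document: synchronized HeLa Kyoto cells, proteins quantified by TMT10plex mass spectrometry, three biological replicates, mitosis taken 0.5 h after nocodazole release, G1/S directly after double thymidine block.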

Sequence	solubility in G1/S (log2) (HeLa Kyoto [1])	melting temperature (HeLa Kyoto [2]; cell cycle stage: G1/S)	melting temperature (HeLa Kyoto [2]; cell cycle stage: mitosis)	solubility change mitosis (log2) (HeLa Kyoto [3])	thermal stability score (HeLa Kyoto [4]; [5])	thermal stability score (HeLa Kyoto [4]; cell cycle stage: mitosis)
MSFRKVVRQSKFRHVFGQPVKNDQCYEDIRVSRVTWDSTFCAVNPKFLAVIVEASGGGAFLVLPLSKTGRIDKAYPTVCGHTGPVLDIDWCPHNDEVIASGSEDCTVMVWQIPENGLTSPLTEPVVVLEGHTKRVGIIAWHPTARNVLLSAGCDNVVLIWNVGTAEELYRLDSLHPDLIYNVSWNHNGSLFCSACKDKSVRIIDPRRGTLVAEREKAHEGARPMRAIFLADGKVFTTGFSRMSERQLALWDPENLEEPMALQELDSSNGALLPFYDPDTSVVYVCGKGDSSIRYFEITEEPPYIHFLNTFTSKEPQRGMGSMPKRGLEVSKCEIARFYKLHERKCEPIVMTVPRKSDLFQDDLYPDTAGPEAALEAEEWVSGRDADPILISLREAYVPSKQRDLKISRRNVLSDSRPAMAPGSSHLGAPASTTTAADATPSGSLARAGEAGKLEEVMQELRALRALVKEQGDRICRLEEQLGRMENGDA [CORO1B]	-0.0585	51.1 °C	50.6 °C	-0.0904	-0.395	-0.683
MERAGATSRGGQAPGFLLRLHTEGRAEAARVQEQDLRQWGLTGIHLRSYQLEGVNWLAQRFHCQNGCILGDEMGLGKTCQTIALFIYLAGRLNDEGPFLILCPLSVLSNWKEEMQRFAPGLSCVTYAGDKEERACLQQDLKQESRFHVLLTTYEICLKDASFLKSFPWSVLVVDEAHRLKNQSSLLHKTLSEFSVVFSLLLTGTPIQNSLQELYSLLSFVEPDLFSKEEVGDFIQRYQDIEKESESASELHKLLQPFLLRRVKAEVATELPKKTEVVIYHGMSALQKKYYKAILMKDLDAFENETAKKVKLQNILSQLRKCVDHPYLFDGVEPEPFEVGDHLTEASGKLHLLDKLLAFLYSGGHRVLLFSQMTQMLDILQDYMDYRGYSYERVDGSVRGEERHLAIKNFGQQPIFVFLLSTRAGGVGMNLTAADTVIFVDSDFNPQNDLQAAARAHRIGQNKSVKVIRLIGRDTVEEIVYRKAASKLQLTNMIIEGGHFTLGAQKPAADADLQLSEILKFGLDKLLASEGSTMDEIDLESILGETKDGQWVSDALPAAEGGSRDQEEGKNHMYLFEGKDYSKEPSKEDRKSFEQLVNLQKTLLEKASQEGRSLRNKGSVLIPGLVEGSTKRKRVLSPEELEDRQKKRQEAAAKRRRLIEEKKRQKEEAEHKKKMAWWESNNYQSFCLPSEESEPEDLENGEESSAELDYQDPDATSLKYVSGDVTHPQAGAEDALIVHCVDDSGHWGRGGLFTALEKRSAEPRKIYELAGKMKDLSLGGVLLFPVDDKESRNKGQDLLALIVAQHRDRSNVLSGIKMAALEEGLKKIFLAAKKKKASVHLPRIGHATKGFNWYGTERLIRKHLAARGIPTYIYYFPRSKSAVLHSQSSSSSSRQLVP [CHD1L]	-0.105	46.9 °C	49 °C	-0.0342	0.274	0.334
MGKSDFLTPKAIANRIKSKGLQKLRWYCQMCQKQCRDENGFKCHCMSESHQRQLLLASENPQQFMDYFSEEFRNDFLELLRRRFGTKRVHNNIVYNEYISHREHIHMNATQWETLTDFTKWLGREGLCKVDETPKGWYIQYIDRDPETIRRQLELEKKKKQDLDDEEKTAKFIEEQVRRGLEGKEQEVPTFTELSRENDEEKVTFNLSKGACSSSGATSSKSSTLGPSALKTIGSSASVKRKESSQSSTQSKEKKKKKSALDEIMEIEEEKKRTARTDYWLQPEIIVKIITKKLGEKYHKKKAIVKEVIDKYTAVVKMIDSGDKLKLDQTHLETVIPAPGKRILVLNGGYRGNEGTLESINEKTFSATIVIETGPLKGRRVEGIQYEDISKLA [KIN]	-0.339	51.1 °C	49.3 °C	0.174	0.727	1.45
MELEDGVVYQEEPGGSGAVMSERVSGLAGSIYREFERLIGRYDEEVVKELMPLVVAVLENLDSVFAQDQEHQVELELLRDDNEQLITQYEREKALRKHAEEKFIEFEDSQEQEKKDLQTRVESLESQTRQLELKAKNYADQISRLEEREAELKKEYNALHQRHTEMIHNYMEHLERTKLHQLSGSDQLESTAHSRIRKERPISLGIFPLPAGDGLLTPDAQKGGETPGSEQWKFQELSQPRSHTSLKVSNSPEPQKAVEQEDELSDVSQGGSKATTPASTANSDVATIPTDTPLKEENEGFVKVTDAPNKSEISKHIEVQVAQETRNVSTGSAENEEKSEVQAIIESTPELDMDKDLSGYKGSSTPTKGIENKAFDRNTESLFEELSSAGSGLIGDVDEGADLLGMGREVENLILENTQLLETKNALNIVKNDLIAKVDELTCEKDVLQGELEAVKQAKLKLEEKNRELEEELRKARAEAEDARQKAKDDDDSDIPTAQRKRFTRVEMARVLMERNQYKERLMELQEAVRWTEMIRASRENPAMQEKKRSSIWQFFSRLFSSSSNTTKKPEPPVNLKYNAPTSHVTPSVKKRSSTLSQLPGDKSKAFDFLSEETEASLASRREQKREQYRQVKAHVQKEDGRVQAFGWSLPQKYKQVTNGQGENKMKNLPVPVYLRPLDEKDTSMKLWCAVGVNLSGGKTRDGGSVVGASVFYKDVAGLDTEGSKQRSASQSSLDKLDQELKEQQKELKNQEELSSLVWICTSTHSATKVLIIDAVQPGNILDSFTVCNSHVLCIASVPGARETDYPAGEDLSESGQVDKASLCGSMTSNSSAETDSLLGGITVVGCSAEGVTGAATSPSTNGASPVMDKPPEMEAENSEVDENVPTAEEATEATEGNAGSAEDTVDISQTGVYTEHVFTDPLGVQIPEDLSPVYQSSNDSDAYKDQISVLPNEQDLVREEAQKMSSLLPTMWLGAQNGCLYVHSSVAQWRKCLHSIKLKDSILSIVHVKGIVLVALADGTLAIFHRGVDGQWDLSNYHLLDLGRPHHSIRCMTVVHDKVWCGYRNKIYVVQPKAMKIEKSFDAHPRKESQVRQLAWVGDGVWVSIRLDSTLRLYHAHTYQHLQDVDIEPYVSKMLGTGKLGFSFVRITALMVSCNRLWVGTGNGVIISIPLTETNKTSGVPGNRPGSVIRVYGDENSDKVTPGTFIPYCSMAHAQLCFHGHRDAVKFFVAVPGQVISPQSSSSGTDLTGDKAGPSAQEPGSQTPLKSMLVISGGEGYIDFRMGDEGGESELLGEDLPLEPSVTKAERSHLIVWQVMYGNE [SPAG9]	0.00549	51.3 °C	50.6 °C	-0.168	0.672	0.413
MLRSGPASGPSVPTGRAMPSRRVARPPAAPELGALGSPDLSSLSLAVSRSTDELEIIDEYIKENGFGLDGGQPGPGEGLPRLVSRGAASLSTVTLGPVAPPATPPPWGCPLGRLVSPAPGPGPQPHLVITEQPKQRGMRFRYECEGRSAGSILGESSTEASKTLPAIELRDCGGLREVEVTACLVWKDWPHRVHPHSLVGKDCTDGICRVRLRPHVSPRHSFNNLGIQCVRKKEIEAAIERKIQLGIDPYNAGSLKNHQEVDMNVVRICFQASYRDQQGQMRRMDPVLSEPVYDKKSTNTSELRICRINKESGPCTGGEELYLLCDKVQKEDISVVFSRASWEGRADFSQADVHRQIAIVFKTPPYEDLEIVEPVTVNVFLQRLTDGVCSEPLPFTYLPRDHDSYGVDKKRKRGMPDVLGELNSSDPHGIESKRRKKKPAILDHFLPNHGSGPFLPPSALLPDPDFFSGTVSLPGLEPPGGPDLLDDGFAYDPTAPTLFTMLDLLPPAPPHASAVVCSGGAGAVVGETPGPEPLTLDSYQAPGPGDGGTASLVGSNMFPNHYREAAFGGGLLSPGPEAT [RELB]	-0.0253		50.1 °C	-0.12	0.0562	0.606
MDPLSELQDDLTLDDTSEALNQLKLASIDEKNWPSDEMPDFPKSDDSKSSSPELVTHLKWDDPYYDIARHQIVEVAGDDKYGRKIIVFSACRMPPSHQLDHSKLLGYLKHTLDQYVESDYTLLYLHHGLTSDNKPSLSWLRDAYREFDRKYKKNIKALYIVHPTMFIKTLLILFKPLISFKFGQKIFYVNYLSELSEHVKLEQLGIPRQVLKYDDFLKSTQKSPATAPKPMPPRPPLPNQQFGVSLQHLQEKNPEQEPIPIVLRETVAYLQAHALTTEGIFRRSANTQVVREVQQKYNMGLPVDFDQYNELHLPAVILKTFLRELPEPLLTFDLYPHVVGFLNIDESQRVPATLQVLQTLPEENYQVLRFLTAFLVQISAHSDQNKMTNTNLAVVFGPNLLWAKDAAITLKAINPINTFTKFLLDHQGELFPSPDPSGL [ARHGAP1]	0.473	51.4 °C	51.4 °C	-0.0609	0.517	0.431
MIASHLLAYFFTELNHDQVQKVDQYLYHMRLSDETLLEISKRFRKEMEKGLGATTHPTAAVKMLPTFVRSTPDGTEHGEFLALDLGGTNFRVLWVKVTDNGLQKVEMENQIYAIPEDIMRGSGTQLFDHIAECLANFMDKLQIKDKKLPLGFTFSFPCHQTKLDESFLVSWTKGFKSSGVEGRDVVALIRKAIQRRGDFDIDIVAVVNDTVGTMMTCGYDDHNCEIGLIVGTGSNACYMEEMRHIDMVEGDEGRMCINMEWGAFGDDGSLNDIRTEFDQEIDMGSLNPGKQLFEKMISGMYMGELVRLILVKMAKEELLFGGKLSPELLNTGRFETKDISDIEGEKDGIRKAREVLMRLGLDPTQEDCVATHRICQIVSTRSASLCAATLAAVLQRIKENKGEERLRSTIGVDGSVYKKHPHFAKRLHKTVRRLVPGCDVRFLRSEDGSGKGAAMVTAVAYRLADQHRARQKTLEHLQLSHDQLLEVKRRMKVEMERGLSKETHASAPVKMLPTYVCATPDGTEKGDFLALDLGGTNFRVLLVRVRNGKWGGVEMHNKIYAIPQEVMHGTGDELFDHIVQCIADFLEYMGMKGVSLPLGFTFSFPCQQNSLDESILLKWTKGFKASGCEGEDVVTLLKEAIHRREEFDLDVVAVVNDTVGTMMTCGFEDPHCEVGLIVGTGSNACYMEEMRNVELVEGEEGRMCVNMEWGAFGDNGCLDDFRTEFDVAVDELSLNPGKQRFEKMISGMYLGEIVRNILIDFTKRGLLFRGRISERLKTRGIFETKFLSQIESDCLALLQVRAILQHLGLESTCDDSIIVKEVCTVVARRAAQLCGAGMAAVVDRIRENRGLDALKVTVGVDGTLYKLHPHFAKVMHETVKDLAPKCDVSFLQSEDGSGKGAALITAVACRIREAGQR [HK2]	-0.166	48.2 °C	49.1 °C	-0.148	1.07	2.33
MDRSGFGEISSPVIREAEVTRTARKQSAQKRVLLQASQDENFGNTTPRNQVIPRTPSSFRQPFTPTSRSLLRQPDISCILGTGGKSPRLTQSSGFFGNLSMVTNLDDSNWAAAFSSQRSGLFTNTEPHSITEDVTISAVMLREDDPGEAASMSMFSDFLQSFLKHSSSTVFDLVEEYENICGSQVNILSKIVSRATPGLQKFSKTASMLWLLQQEMVTWRLLASLYRDRIQSALEEESVFAVTAVNASEKTVVEALFQRDSLVRQSQLVVDWLESIAKDEIGEFSDNIEFYAKSVYWENTLHTLKQRQLTSYVGSVRPLVTELDPDAPIRQKMPLDDLDREDEVRLLKYLFTLIRAGMTEEAQRLCKRCGQAWRAATLEGWKLYHDPNVNGGTELEPVEGNPYRRIWKISCWRMAEDELFNRYERAIYAALSGNLKQLLPVCDTWEDTVWAYFRVMVDSLVEQEIQTSVATLDETEELPREYLGANWTLEKVFEELQATDKKRVLEENQEHYHIVQKFLILGDIDGLMDEFSKWLSKSRNNLPGHLLRFMTHLILFFRTLGLQTKEEVSIEVLKTYIQLLIREKHTNLIAFYTCHLPQDLAVAQYALFLESVTEFEQRHHCLELAKEADLDVATITKTVVENIRKKDNGEFSHHDLAPALDTGTTEEDRLKIDVIDWLVFDPAQRAEALKQGNAIMRKFLASKKHEAAKEVFVKIPQDSIAEIYNQCEEQGMESPLPAEDDNAIREHLCIRAYLEAHETFNEWFKHMNSVPQKPALIPQPTFTEKVAHEHKEKKYEMDFGIWKGHLDALTADVKEKMYNVLLFVDGGWMVDVREDAKEDHERTHQMVLLRKLCLPMLCFLLHTILHSTGQYQECLQLADMVSSERHKLYLVFSKEELRKLLQKLRESSLMLLDQGLDPLGYEIQL [NUP107]	-0.526	51.1 °C	49.3 °C	0.428	-2.75	-3.13
